Source: patent US9605283B2, “Microorganism modified for the production of 1,3-propanediol” (INSTITUT NATIONAL DES SCIENCES APPLIQUÉES, priority 2012, dated 2017)

Key:
[1] = substrate: O=C(O)[C@@H](O)CCO; test: purified protein, by the assay type; type: biochemical, Escherichia coli MG1655; conditions: other: 37° C., pH 7, 0.06 mM DCIP
Description: (§1) Ligation products were transformed into E. coli DH5α cells.
(§2) Activity of the membrane-associated DHB dehydrogenase (Ec-LldD) was assayed by following the DHB-dependent reduction of 2,6-dichloroindophenol (DCIP). (L)-2,4-dihydroxybutyrate+DCIPox→2-oxo-4-hydroxybutyrate+DCIPred Reaction scheme 2:
(§3) Reactions were started by adding 20 mM (L)-2,4-dihydroxybutyrate (Rhodia).

[2] = substrate: C[C@H](O)C(=O)O; test: purified protein, by the assay type; type: biochemical, Escherichia coli MG1655; conditions: other: 37° C., pH 7, DCIP reduction
Description: as §1, §2, §3

[3] = substrate: O=C(O)C[C@H](O)C(=O)O; test: purified protein, by the assay type; conditions: other: 37° C., pH 8, NAD
[4] = substrate: O=C(O)[C@@H](O)CCO; test: cells, lysate or membranes named; type: biochemical, Bacillus subtilis; conditions: other: 37° C., pH 8, 10 mM NAD
Description: (§4) Site-directed mutagenesis of the E. coli mdh and the B. subtilis mdh genes were carried out using the oligonucleotide pairs listed in Table 3 and the pET28-Ec-mdh and the pET28-Bs-mdh plasmids as the templates. Point mutations to change the amino acid sequence were introduced by PCR (Phusion 1U, HF buffer 20% (v/v), dNTPs 0.2 mM, direct and reverse primers 0.04 μM each, template plasmid 50 ng, water) using the oligonucleotide pairs listed in Table 3. Mutated genes contained a new restriction site listed in Table 3 (introduced using silent mutations) in addition to the functional mutation to facilitate identification of mutated clones. The PCR products were digested by DpnI at 37° C. for 1 h to remove template DNA, and transformed into competent E. coli DH5-alpha cells (NEB). The mutated plasmids were identified by restriction site analysis and verified to carry the desired mutations by DNA sequencing.
(§5) Mutant enzymes were expressed, purified and tested for DHB dehydrogenase activity as described in Example 1.

[5] = substrate: O=C(O)C[C@H](O)C(=O)O; test: cells, lysate or membranes named; type: biochemical, Bacillus subtilis; conditions: other: 37° C., pH 8, NAD
Description: as §4, §5

[6] = substrate: O=C(O)[C@@H](O)CCO; test: purified protein, by the assay type; type: biochemical, Escherichia coli; conditions: other: 37° C., pH 7, 0.06 mM DCIP
Description: as §2, §3
(§6) Site-directed mutagenesis of the E. coli lldD gene was carried out using the oligonucleotide pairs listed in Table 5 and the pET28-Ec-lldD plasmid as the template.

[7] = substrate: C[C@H](O)C(=O)O; test: purified protein, by the assay type; type: biochemical, Escherichia coli; conditions: other: 37° C., pH 7, DCIP reduction
Description: as §2, §3, §6

[8] = substrate: O=C(O)C(=O)CCO; test: OHB decarboxylase / pyruvate decarboxylase kinetics, Zm-Pdc wild type; type: biochemical, Zymomonas mobilis; conditions: other: 37° C., pH 7, coupled to E. coli YqhD/NADPH
Source text: (§7) Genomic DNAs of S. cerevisiae BY4741, and Z. mobilis (Lindner) Kluyver and van Niel (ATCC® 31821) were used as the template. […] Ligation products were transformed into competent E. coli DH5α cells (NEB). […] The corresponding protein sequences are represented by SEQ No. 208 and SEQ ID No. 208 128 respectively.
(§8) The plasmids were used to transform E. coli BL21 (DE3) star cells and the enzymes carrying an N-terminal hexa-His tag were expressed and purified as described in Example 1. Decarboxylase activity on 2-oxo-4-hydroxybutyrate (OHB), pyruvate (Sigma), and 4-methyl-2-oxovaleric acid (Sigma) was quantified.
(§9) OHB decarboxylase activity was assayed by coupling the decarboxylase activity to the NADPH-dependent reduction of the released 3-hydroxypropanal by purified aldehyde reductase, YqhD, from E. coli. The decarboxylation of pyruvate was coupled to the NADH-dependent reduction of acetaldehyde catalysed by yeast alcohol dehydrogenase. Branched-chain alpha-ketoacid decarboxylase activity was measured on 4-methyl-2-oxovaleric acid by coupling to the NADH-dependent reduction of 3-methylbutanal catalysed by horse liver alcohol dehydrogenase. […] Reactions were started by adding 20 mM 2-oxo-4-hydroxybutyrate (OHB), 10 mM 4-methyl-2-oxovaleric acid (MOV), or 5 mM pyruvate.

[9] = substrate: CC(=O)C(=O)O; test: as above; type: biochemical, Zymomonas mobilis; conditions: other: 37° C., pH 7, coupled to yeast alcohol dehydrogenase/NADH
Source text: as §7, §8, §9

[10] = substrate: O=C(O)C(=O)CCO; test: OHB decarboxylase / branched-chain alpha-ketoacid decarboxylase kinetics, Ll-KdcA wild type; type: biochemical, Lactococcus lactis B1157-NIZO; conditions: other: 37° C., pH 7, coupled to E. coli YqhD/NADPH
Source text: (§10) The branched-chain alpha-ketoacid decarboxylase encoding gene Ll-kdcA from L. lactis B1157-NIZO was codon-optimized for expression in E. coli. […] The resulting pET28-Ll-kdcA plasmid was shown by DNA sequencing to have the correct sequence.
as §8, §9

[11] = substrate: CC(C)CC(=O)C(=O)O; test: as above; type: biochemical, Lactococcus lactis B1157-NIZO; conditions: other: 37° C., pH 7, coupled to horse liver alcohol dehydrogenase/NADH
Source text: as §10, §8, §9

[12] = substrate: O=C(O)C(=O)CCO; test: OHB decarboxylase / pyruvate decarboxylase kinetics, Zm-Pdc W392L; type: biochemical, Zymomonas mobilis; conditions: other: 37° C., pH 7, coupled to E. coli YqhD/NADPH
Description: as §9
Site-directed mutagenesis of the L. lactis kdcA and the Z. mobilis Pdc genes was carried out using the oligonucleotide pairs listed in Table 9 and the pET28-Ll-kdcA and pET28-Zm-Pdc plasmids, respectively, as the template.
Mutant enzymes were expressed, purified and tested for OHB decarboxylase, pyruvate decarboxylase and MOV decarboxylase activity as described in Example 4.

B1: Escherichia coli membrane associated (L)-lactate dehydrogenase Ec-LldD, wild type, SEQ ID No. 122 (Escherichia coli K-12) (protein)
chain: MIISAASDYRAAAQRILPPFLFHYMDGGAYSEYTLRRNVEDLSEVALRQRILKNMSDLSLETTLFNEKLSMPVALAPVGLCGMYARRGEVQAAKAADAHGIPFTLSTVSVCPIEEVAPAIKRPMWFQLYVLRDRGFMRNALERAKAAGCSTLVFTVDMPTPGARYRDAHSGMSGPNAAMRRYLQAVTHPQWAWDVGLNGRPHDLGNISAYLGKPTGLEDYIGWLGNNFDPSISWKDLEWIRDFWDGPMVIKGILDPEDARDAVRFGADGIVVSNHGGRQLDGVLSSARALPAIADAVKGDIAILADSGIRNGLDVVRMIALGADTVLLGRAFLYALATAGQAGVANLLNLIEKEMKVAMTLTGAKSISEITQDSLVQGLGKELPAALAPMAKGNAA
notes: hexa-His (N); made in house; host or cells: E. coli BL21 (DE3) star
Km [1]: 1310 µM
Km [2]: 130 µM

B2: Escherichia coli (L)-malate dehydrogenase Ec-Mdh, wild type, SEQ ID No. 124 (Escherichia coli K-12) (protein)
chain: MKVAVLGAAGGIGQALALLLKTQLPSGSELSLYDIAPVTPGVAVDLSHIPTAVKIKGFSGEDATPALEGADVVLISAGVARKPGMDRSDLFNVNAGIVKNLVQQVAKTCPKACIGIITNPVNTTVAIAAEVLKKAGVYDKNKLFGVTTLDIIRSNTFVAELKGKQPGEVEVPVIGGHSGVTILPLLSQVPGVSFTEQEVADLTKRIQNAGTEVVEAKAGGGSATLSMGQAAARFGLSLVRALQGEQGVVECAYVEGDGQYARFFSQPLLLGKNGVEERKSIGTLSAFEQNALEGMLDTLKKDIALGEEFVNK
Km [3]: 560 µM

B3: Bacillus subtilis malate dehydrogenase Bs-Mdh variant R87C, SEQ ID No. 154 (Bacillus subtilis subsp. subtilis str. 168; R87C) (protein)
chain: MGNTRKKVSVIGAGFTGATTAFLIAQKELADVVLVDIPQLENPTKGKALDMLEASPVQGFDAKITGTSNYEDTAGSDIVVITAGIACKPGMSRDDLVSTNEKIMRSVTQEIVKYSPDSIIVVLTNPVDAMTYAVYKESGFPKERVIGQSGVLDTARFRTFVAEELNLSVKDVTGFVLGGHGDDMVPLVRYSYAGGIPLETLIPKERIDAIVERTRKGGGEIVNLLGNGSAYYAPAASLTEMVEAILKDQRRVLPTIAYLEGEYGYEGIYLGVPTIVGGNGLEQIIELELTDYERAQLNKSVESVKNVMKVLS
Km [4]: 5400 µM
Km [5]: 6800 µM

B4: Escherichia coli (L)-lactate dehydrogenase Ec-LldD variant V108C, SEQ ID No. 174 (Escherichia coli K-12; V108C) (protein)
chain: MIISAASDYRAAAQRILPPFLFHYMDGGAYSEYTLRRNVEDLSEVALRQRILKNMSDLSLETTLFNEKLSMPVALAPVGLCGMYARRGEVQAAKAADAHGIPFTLSTCSVCPIEEVAPAIKRPMWFQLYVLRDRGFMRNALERAKAAGCSTLVFTVDMPTPGARYRDAHSGMSGPNAAMRRYLQAVTHPQWAWDVGLNGRPHDLGNISAYLGKPTGLEDYIGWLGNNFDPSISWKDLEWIRDFWDGPMVIKGILDPEDARDAVRFGADGIVVSNHGGRQLDGVLSSARALPAIADAVKGDIAILADSGIRNGLDVVRMIALGADTVLLGRAFLYALATAGQAGVANLLNLIEKEMKVAMTLTGAKSISEITQDSLVQGLGKELPAALAPMAKGNAA
notes: DCIP assay
Km [6]: 850 µM
Km [7]: 420 µM

B5: Zymomonas mobilis pyruvate decarboxylase Zm-Pdc, wild type, SEQ ID No. 128 (Zymomonas mobilis subsp. mobilis ZM4 = ATCC 31821) (protein)
chain: MSYTVGTYLAERLVQIGLKHHFAVAGDYNLVLLDNLLLNKNMEQVYCCNELNCGFSAEGYARAKGAAAAVVTYSVGALSAFDAIGGAYAENLPVILISGAPNNNDHAAGHVLHHALGKTDYHYQLEMAKNITAAAEAIYTPEEAPAKIDHVIKTALREKKPVYLEIACNIASMPCAAPGPASALFNDEASDEASLNAAVEETLKFIANRDKVAVLVGSKLRAAGAEEAAVKFADALGGAVATMAAAKSFFPEENPHYIGTSWGEVSYPGVEKTMKEADAVIALAPVFNDYSTTGWTDIPDPKKLVLAEPRSVVVNGIRFPSVHLKDYLTRLAQKVSKKTGALDFFKSLNAGELKKAAPADPSAPLVNAEIARQVEALLTPNTTVIAETGDSWFNAQRMKLPNGARVEYEMQWGHIGWSVPAAFGYAVGAPERRNILMVGDGSFQLTAQEVAQMVRLKLPVIIFLINNYGYTIEVMIHDGPYNNIKNWDYAGLMEVFNGNGGYDSGAGKGLKAKTGGELAEAIKVALANTDGPTLIECFIGREDCTEELVKWGKRVAAANSRKPVNKLL
notes: as for B1
Km [8]: 1500 µM
Km [9]: 2500 µM

B6: Lactococcus lactis branched-chain alpha-ketoacid decarboxylase Ll-KdcA, wild type, SEQ ID No. 130 (Lactococcus lactis) (protein)
chain: MYTVGDYLLDRLHELGIEEIFGVPGDYNLQFLDQIISREDMKWIGNANELNASYMADGYARTKKAAAFLTTFGVGELSAINGLAGSYAENLPVVEIVGSPTSKVQNDGKFVHHTLADGDFKHFMKMHEPVTAARTLLTAENATYEIDRVLSQLLKERKPVYINLPVDVAAAKAEKPALSLEKESSTTNTTEQVILSKIEESLKNAQKPVVIAGHEVISFGLEKTVTQFVSETKLPITTLNFGKSAVDESLPSFLGIYNGKLSEISLKNFVESADFILMLGVKLTDSSTGAFTHHLDENKMISLNIDEGIIFNKVVEDFDFRAVVSSLSELKGIEYEGQYIDKQYEEFIPSSAPLSQDRLWQAVESLTQSNETIVAEQGTSFFGASTIFLKSNSRFIGQPLWGSIGYTFPAALGSQIADKESRHLLFIGDGSLQLTVQELGLSIREKLNPICFIINNDGYTVEREIHGPTQSYNDIPMWNYSKLPETFGATEDRVVSKIVRTENEFVSVMKEAQADVNRMYWIELVLEKEDAPKLLKKMGKLFAEQNK
Km [10]: 4000 µM
Km [11]: 150 µM

B7: Zymomonas mobilis pyruvate decarboxylase Zm-Pdc variant W392L, SEQ ID No. 192 (Zymomonas mobilis subsp. mobilis ZM4 = ATCC 31821; W392L) (protein)
chain: MSYTVGTYLAERLVQIGLKHHFAVAGDYNLVLLDNLLLNKNMEQVYCCNELNCGFSAEGYARAKGAAAAVVTYSVGALSAFDAIGGAYAENLPVILISGAPNNNDHAAGHVLHHALGKTDYHYQLEMAKNITAAAEAIYTPEEAPAKIDHVIKTALREKKPVYLEIACNIASMPCAAPGPASALFNDEASDEASLNAAVEETLKFIANRDKVAVLVGSKLRAAGAEEAAVKFADALGGAVATMAAAKSFFPEENPHYIGTSWGEVSYPGVEKTMKEADAVIALAPVFNDYSTTGWTDIPDPKKLVLAEPRSVVVNGIRFPSVHLKDYLTRLAQKVSKKTGALDFFKSLNAGELKKAAPADPSAPLVNAEIARQVEALLTPNTTVIAETGDSLFNAQRMKLPNGARVEYEMQWGHIGWSVPAAFGYAVGAPERRNILMVGDGSFQLTAQEVAQMVRLKLPVIIFLINNYGYTIEVMIHDGPYNNIKNWDYAGLMEVFNGNGGYDSGAGKGLKAKTGGELAEAIKVALANTDGPTLIECFIGREDCTEELVKWGKRVAAANSRKPVNKLL
Km [12]: 3700 µM
